These are literature values, as cited in article PMC9569990 (International Journal of Molecular Sciences, 2022).

The term Kd denotes the free concentration of one partner at which half of the binding sites on the other are occupied at equilibrium, for simple one-to-one binding.

One series has as its target S100P (Homo sapiens) (UniProt P25815). The note with it: cited from earlier work.
Series [1] addresses RAGE V domain (Homo sapiens) (UniProt Q15109). The conditions noted are these: cited from earlier work.

Chain of S100P (P25815 whole entry): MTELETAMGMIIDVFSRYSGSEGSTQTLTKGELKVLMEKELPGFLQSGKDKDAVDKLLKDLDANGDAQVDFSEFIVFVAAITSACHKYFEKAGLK
Chain of RAGE V domain (Homo sapiens) (Q15109 23-116): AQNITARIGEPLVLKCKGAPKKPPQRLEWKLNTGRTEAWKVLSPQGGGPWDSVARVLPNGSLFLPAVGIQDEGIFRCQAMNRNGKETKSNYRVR
Chain of S100P (Homo sapiens) (P25815 whole entry): as the sequence (P25815 whole entry) above

On to S100P (from UniProt P25815), for which the equilibrium dissociation constant (Kd) with S100P (Homo sapiens) was 64 nM; in series [1], 6 µM.
